B1: Keratin, type I cuticular Ha8 (Homo sapiens), O76015 (parent)
chain: MTSSYSSSSCPLGCTMAPGARNVSVSPIDIGCQPGAEANIAPMCLLANVAHANRVRVGSTPLGRPSLCLPPTCHTACPLPGTCHIPGNIGICGAYGENTLNGHEKETMQFLNDRLANYLEKVRQLEQENAELEATLLERSKCHESTVCPDYQSYFHTIEELQQKILCSKAENARLIVQIDNAKLAADDFRIKLESERSLRQLVEADKCGTQKLLDDATLAKADLEAQQESLKEEQLSLKSNHEQEVKILRSQLGEKLRIELDIEPTIDLNRVLGEMRAQYEAMLETNRQDVEQWFQAQSEGISLQDMSCSEELQCCQSEILELRCTVNALEVERQAQHTLKDCLQNSLCEAEDRFGTELAQMQSLISNVEEQLSEIRADLERQNQEYQVLLDVKTRLENEIATYRNLLESEDCKLPCNPCSTSPSCVTAPCAPRPSCGPCTTCGPTCGASTTGSRF
B2: Protein VAC14 homolog (Homo sapiens), Q08AM6 (parent)
chain: MNPEKDFAPLTPNIVRALNDKLYEKRKVAALEIEKLVREFVAQNNTVQIKHVIQTLSQEFALSQHPHSRKGGLIGLAACSIALGKDSGLYLKELIEPVLTCFNDADSRLRYYACEALYNIVKVARGAVLPHFNVLFDGLSKLAADPDPNVKSGSELLDRLLKDIVTESNKFDLVSFIPLLRERIYSNNQYARQFIISWILVLESVPDINLLDYLPEILDGLFQILGDNGKEIRKMCEVVLGEFLKEIKKNPSSVKFAEMANILVIHCQTTDDLIQLTAMCWMREFIQLAGRVMLPYSSGILTAVLPCLAYDDRKKSIKEVANVCNQSLMKLVTPEDDELDELRPGQRQAEPTPDDALPKQEGTASGGPDGSCDSSFSSGISVFTAASTERAPVTLHLDGIVQVLNCHLSDTAIGMMTRIAVLKWLYHLYIKTPRKMFRHTDSLFPILLQTLSDESDEVILKDLEVLAEIASSPAGQTDDPGPLDGPDLQASHSELQVPTPGRAGLLNTSGTKGLECSPSTPTMNSYFYKFMINLLKRFSSERKLLEVRGPFIIRQLCLLLNAENIFHSMADILLREEDLKFASTMVHALNTILLTSTELFQLRNQLKDLKTLESQNLFCCLYRSWCHNPVTTVSLCFLTQNYRHAYDLIQKFGDLEVTVDFLAEVDKLVQLIECPIFTYLRLQLLDVKNNPYLIKALYGLLMLLPQSSAFQLLSHRLQCVPNPELLQTEDSLKAAPKSQKADSPSIDYAELLQHFEKVQNKHLEVRHQRSGRGDHLDRRVVL

Variants of: B1
Conditions: with k22e_human KRT2, P35908

Variant	effect of a mutation on the interaction
MTSSYSSSSCPLGCTMAPGARNVSVSPIDIGCQPGAEANIAPMCLLANVAHANRVRVGSTPLGRPSLCLPPTCHTACPLPGTCHIPGNIGICGAYGENTLNGHEKETMQFLNDRLANYLEKVRQLEQENAELEATLLERSKCHESTVCPDYQSYFHTIEELQQKILCSKAENARLIVQIDNAKLAADDFRIKLESERSLRQLVEADKCGTQKLLDDATLAKADLEAQQESLKEEQLSLKSNHEQEVKILRSQLGEKLRIELDIEPTIDLNRVLGEMRAQYEAMLETNRQDVEQWFQAQSEGISLQAMSCSEELQCCQSEILELRCTVNALEVERQAQHTLKDCLQNSLCEAEDRFGTELAQMQSLISNVEEQLSEIRADLERQNQEYQVLLDVKTRLENEIATYRNLLESEDCKLPCNPCSTSPSCVTAPCAPRPSCGPCTTCGPTCGASTTGSRF [D306A]	with no effect

Variants of: B1
Conditions: with txnd5_human TXNDC5, Q8NBS9
Sequence of txnd5_human TXNDC5, Q8NBS9 (Q8NBS9 whole entry): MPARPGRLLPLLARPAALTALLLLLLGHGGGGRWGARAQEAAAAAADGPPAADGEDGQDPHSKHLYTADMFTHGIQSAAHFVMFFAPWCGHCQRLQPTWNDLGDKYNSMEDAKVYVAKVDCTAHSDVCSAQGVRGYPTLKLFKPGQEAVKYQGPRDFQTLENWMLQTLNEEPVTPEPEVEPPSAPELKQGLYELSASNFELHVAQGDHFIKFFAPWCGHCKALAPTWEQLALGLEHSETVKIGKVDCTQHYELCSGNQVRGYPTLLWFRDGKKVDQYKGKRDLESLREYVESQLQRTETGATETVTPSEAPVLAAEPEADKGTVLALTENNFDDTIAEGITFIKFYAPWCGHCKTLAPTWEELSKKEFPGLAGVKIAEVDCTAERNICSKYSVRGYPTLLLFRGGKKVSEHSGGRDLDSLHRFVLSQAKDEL

Variant	effect of a mutation on the interaction
MTSSYSSSSCPLGCTMAPGARNVSVSPIDIGCQPGAEANIAPMCLLANVAHANRVRVGSTPLGRPSLCLPPTCHTACPLPGTCHIPGNIGICGAYGENTLNGHEKETMQFLNDRLANYLEKVRQLEQENAELEATLLERSKCHESTVCPDYQSYFHTIEELQQKILCSKAENARLIVQIDNAKLAADDFRIKLESERSLRQLVEADKCGTQKLLDDATLAKADLEAQQESLKEEQLSLKSNHEQEVKILRSQLGEKLRIELDIEPTIDLNRVLGEMRAQYEAMLETNRQDVEQWFQAQSEGISLQAMSCSEELQCCQSEILELRCTVNALEVERQAQHTLKDCLQNSLCEAEDRFGTELAQMQSLISNVEEQLSEIRADLERQNQEYQVLLDVKTRLENEIATYRNLLESEDCKLPCNPCSTSPSCVTAPCAPRPSCGPCTTCGPTCGASTTGSRF [D306A]	with no effect

Variants of: B1
Conditions: with prs8_human PSMC5, P62195
Sequence of prs8_human PSMC5, P62195 (P62195 whole entry): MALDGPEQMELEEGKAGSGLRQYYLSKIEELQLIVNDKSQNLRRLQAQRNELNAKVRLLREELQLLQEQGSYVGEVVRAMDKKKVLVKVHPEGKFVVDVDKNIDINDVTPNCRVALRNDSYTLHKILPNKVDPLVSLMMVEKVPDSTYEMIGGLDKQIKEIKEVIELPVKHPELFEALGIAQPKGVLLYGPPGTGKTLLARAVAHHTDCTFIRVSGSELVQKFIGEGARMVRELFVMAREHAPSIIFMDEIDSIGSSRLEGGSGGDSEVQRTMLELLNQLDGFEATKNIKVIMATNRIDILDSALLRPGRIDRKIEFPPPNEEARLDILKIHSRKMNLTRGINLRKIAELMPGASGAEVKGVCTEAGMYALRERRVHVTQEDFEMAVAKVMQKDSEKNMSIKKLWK

Variant	effect of a mutation on the interaction
MTSSYSSSSCPLGCTMAPGARNVSVSPIDIGCQPGAEANIAPMCLLANVAHANRVRVGSTPLGRPSLCLPPTCHTACPLPGTCHIPGNIGICGAYGENTLNGHEKETMQFLNDRLANYLEKVRQLEQENAELEATLLERSKCHESTVCPDYQSYFHTIEELQQKILCSKAENARLIVQIDNAKLAADDFRIKLESERSLRQLVEADKCGTQKLLDDATLAKADLEAQQESLKEEQLSLKSNHEQEVKILRSQLGEKLRIELDIEPTIDLNRVLGEMRAQYEAMLETNRQDVEQWFQAQSEGISLQAMSCSEELQCCQSEILELRCTVNALEVERQAQHTLKDCLQNSLCEAEDRFGTELAQMQSLISNVEEQLSEIRADLERQNQEYQVLLDVKTRLENEIATYRNLLESEDCKLPCNPCSTSPSCVTAPCAPRPSCGPCTTCGPTCGASTTGSRF [D306A]	with no effect

Variants of: B1
Conditions: with p85b_human PIK3R2, O00459
Sequence of p85b_human PIK3R2, O00459 (O00459 whole entry): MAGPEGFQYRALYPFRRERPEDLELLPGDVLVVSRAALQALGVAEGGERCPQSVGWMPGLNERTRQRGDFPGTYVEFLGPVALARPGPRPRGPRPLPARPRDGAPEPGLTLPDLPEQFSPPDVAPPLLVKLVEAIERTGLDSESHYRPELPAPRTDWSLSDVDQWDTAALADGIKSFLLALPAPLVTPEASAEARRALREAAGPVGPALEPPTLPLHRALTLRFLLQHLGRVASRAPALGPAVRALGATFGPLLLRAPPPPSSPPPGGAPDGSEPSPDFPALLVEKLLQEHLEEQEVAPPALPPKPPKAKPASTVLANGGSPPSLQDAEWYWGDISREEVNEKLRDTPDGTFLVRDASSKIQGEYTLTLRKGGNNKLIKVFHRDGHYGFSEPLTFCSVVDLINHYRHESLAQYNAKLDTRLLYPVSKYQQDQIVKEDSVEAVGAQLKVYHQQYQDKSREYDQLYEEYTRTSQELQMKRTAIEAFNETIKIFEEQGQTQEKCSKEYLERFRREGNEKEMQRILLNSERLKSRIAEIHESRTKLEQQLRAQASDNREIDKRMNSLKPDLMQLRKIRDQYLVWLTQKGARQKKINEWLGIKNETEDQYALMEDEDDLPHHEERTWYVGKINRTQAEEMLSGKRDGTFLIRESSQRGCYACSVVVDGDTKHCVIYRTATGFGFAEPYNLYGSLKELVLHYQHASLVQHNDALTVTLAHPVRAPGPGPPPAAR

Variant	effect of a mutation on the interaction
MTSSYSSSSCPLGCTMAPGARNVSVSPIDIGCQPGAEANIAPMCLLANVAHANRVRVGSTPLGRPSLCLPPTCHTACPLPGTCHIPGNIGICGAYGENTLNGHEKETMQFLNDRLANYLEKVRQLEQENAELEATLLERSKCHESTVCPDYQSYFHTIEELQQKILCSKAENARLIVQIDNAKLAADDFRIKLESERSLRQLVEADKCGTQKLLDDATLAKADLEAQQESLKEEQLSLKSNHEQEVKILRSQLGEKLRIELDIEPTIDLNRVLGEMRAQYEAMLETNRQDVEQWFQAQSEGISLQAMSCSEELQCCQSEILELRCTVNALEVERQAQHTLKDCLQNSLCEAEDRFGTELAQMQSLISNVEEQLSEIRADLERQNQEYQVLLDVKTRLENEIATYRNLLESEDCKLPCNPCSTSPSCVTAPCAPRPSCGPCTTCGPTCGASTTGSRF [D306A]	with no effect

Variants of: B1
Conditions: with KRT6A

Variant	effect of a mutation on the interaction
MTSSYSSSSCPLGCTMAPGARNVSVSPIDIGCQPGAEANIAPMCLLANVAHANRVRVGSTPLGRPSLCLPPTCHTACPLPGTCHIPGNIGICGAYGENTLNGHEKETMQFLNDRLANYLEKVRQLEQENAELEATLLERSKCHESTVCPDYQSYFHTIEELQQKILCSKAENARLIVQIDNAKLAADDFRIKLESERSLRQLVEADKCGTQKLLDDATLAKADLEAQQESLKEEQLSLKSNHEQEVKILRSQLGEKLRIELDIEPTIDLNRVLGEMRAQYEAMLETNRQDVEQWFQAQSEGISLQAMSCSEELQCCQSEILELRCTVNALEVERQAQHTLKDCLQNSLCEAEDRFGTELAQMQSLISNVEEQLSEIRADLERQNQEYQVLLDVKTRLENEIATYRNLLESEDCKLPCNPCSTSPSCVTAPCAPRPSCGPCTTCGPTCGASTTGSRF [D306A]	with no effect

Variants of: B1
Conditions: with k2c4_human KRT4, P19013
Sequence of k2c4_human KRT4, P19013 (P19013 whole entry): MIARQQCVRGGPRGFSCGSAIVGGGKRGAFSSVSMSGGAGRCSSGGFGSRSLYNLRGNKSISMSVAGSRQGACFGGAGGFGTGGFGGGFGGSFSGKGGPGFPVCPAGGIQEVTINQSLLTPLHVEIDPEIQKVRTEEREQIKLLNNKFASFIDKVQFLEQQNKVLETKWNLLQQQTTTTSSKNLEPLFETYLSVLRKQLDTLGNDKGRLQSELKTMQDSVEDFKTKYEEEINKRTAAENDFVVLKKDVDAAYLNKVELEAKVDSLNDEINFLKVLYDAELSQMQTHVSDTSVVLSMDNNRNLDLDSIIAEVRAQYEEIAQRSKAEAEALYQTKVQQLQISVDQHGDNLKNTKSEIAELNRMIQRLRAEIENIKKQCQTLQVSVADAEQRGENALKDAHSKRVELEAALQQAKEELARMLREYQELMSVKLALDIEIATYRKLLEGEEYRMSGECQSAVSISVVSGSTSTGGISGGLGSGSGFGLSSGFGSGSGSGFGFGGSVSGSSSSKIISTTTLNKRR

Variant	effect of a mutation on the interaction
MTSSYSSSSCPLGCTMAPGARNVSVSPIDIGCQPGAEANIAPMCLLANVAHANRVRVGSTPLGRPSLCLPPTCHTACPLPGTCHIPGNIGICGAYGENTLNGHEKETMQFLNDRLANYLEKVRQLEQENAELEATLLERSKCHESTVCPDYQSYFHTIEELQQKILCSKAENARLIVQIDNAKLAADDFRIKLESERSLRQLVEADKCGTQKLLDDATLAKADLEAQQESLKEEQLSLKSNHEQEVKILRSQLGEKLRIELDIEPTIDLNRVLGEMRAQYEAMLETNRQDVEQWFQAQSEGISLQAMSCSEELQCCQSEILELRCTVNALEVERQAQHTLKDCLQNSLCEAEDRFGTELAQMQSLISNVEEQLSEIRADLERQNQEYQVLLDVKTRLENEIATYRNLLESEDCKLPCNPCSTSPSCVTAPCAPRPSCGPCTTCGPTCGASTTGSRF [D306A]	with no effect

Variants of: B1
Conditions: with txlnb_human TXLNB

Variant	effect of a mutation on the interaction
MTSSYSSSSCPLGCTMAPGARNVSVSPIDIGCQPGAEANIAPMCLLANVAHANRVRVGSTPLGRPSLCLPPTCHTACPLPGTCHIPGNIGICGAYGENTLNGHEKETMQFLNDRLANYLEKVRQLEQENAELEATLLERSKCHESTVCPDYQSYFHTIEELQQKILCSKAENARLIVQIDNAKLAADDFRIKLESERSLRQLVEADKCGTQKLLDDATLAKADLEAQQESLKEEQLSLKSNHEQEVKILRSQLGEKLRIELDIEPTIDLNRVLGEMRAQYEAMLETNRQDVEQWFQAQSEGISLQAMSCSEELQCCQSEILELRCTVNALEVERQAQHTLKDCLQNSLCEAEDRFGTELAQMQSLISNVEEQLSEIRADLERQNQEYQVLLDVKTRLENEIATYRNLLESEDCKLPCNPCSTSPSCVTAPCAPRPSCGPCTTCGPTCGASTTGSRF [D306A]	with no effect

Variants of: B1
Conditions: with KRT79, Q5XKE5
Sequence of KRT79, Q5XKE5 (Q5XKE5 whole entry): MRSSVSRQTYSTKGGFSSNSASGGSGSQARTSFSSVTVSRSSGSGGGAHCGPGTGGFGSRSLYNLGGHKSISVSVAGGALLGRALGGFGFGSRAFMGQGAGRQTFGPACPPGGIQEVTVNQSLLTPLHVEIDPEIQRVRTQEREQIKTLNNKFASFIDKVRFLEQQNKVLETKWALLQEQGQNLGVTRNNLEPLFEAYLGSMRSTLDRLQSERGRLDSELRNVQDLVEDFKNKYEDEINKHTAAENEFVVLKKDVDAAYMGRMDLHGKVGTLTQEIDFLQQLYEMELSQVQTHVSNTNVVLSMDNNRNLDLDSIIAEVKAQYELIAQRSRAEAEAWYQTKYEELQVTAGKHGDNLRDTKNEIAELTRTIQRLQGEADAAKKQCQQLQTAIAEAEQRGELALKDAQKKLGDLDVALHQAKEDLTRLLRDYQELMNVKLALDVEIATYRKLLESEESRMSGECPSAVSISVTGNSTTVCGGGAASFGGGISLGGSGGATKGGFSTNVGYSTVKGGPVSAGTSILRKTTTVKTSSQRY

Variant	effect of a mutation on the interaction
MTSSYSSSSCPLGCTMAPGARNVSVSPIDIGCQPGAEANIAPMCLLANVAHANRVRVGSTPLGRPSLCLPPTCHTACPLPGTCHIPGNIGICGAYGENTLNGHEKETMQFLNDRLANYLEKVRQLEQENAELEATLLERSKCHESTVCPDYQSYFHTIEELQQKILCSKAENARLIVQIDNAKLAADDFRIKLESERSLRQLVEADKCGTQKLLDDATLAKADLEAQQESLKEEQLSLKSNHEQEVKILRSQLGEKLRIELDIEPTIDLNRVLGEMRAQYEAMLETNRQDVEQWFQAQSEGISLQAMSCSEELQCCQSEILELRCTVNALEVERQAQHTLKDCLQNSLCEAEDRFGTELAQMQSLISNVEEQLSEIRADLERQNQEYQVLLDVKTRLENEIATYRNLLESEDCKLPCNPCSTSPSCVTAPCAPRPSCGPCTTCGPTCGASTTGSRF [D306A]	with no effect

Variants of: B1
Conditions: with txlna_human TXLNA

Variant	effect of a mutation on the interaction
MTSSYSSSSCPLGCTMAPGARNVSVSPIDIGCQPGAEANIAPMCLLANVAHANRVRVGSTPLGRPSLCLPPTCHTACPLPGTCHIPGNIGICGAYGENTLNGHEKETMQFLNDRLANYLEKVRQLEQENAELEATLLERSKCHESTVCPDYQSYFHTIEELQQKILCSKAENARLIVQIDNAKLAADDFRIKLESERSLRQLVEADKCGTQKLLDDATLAKADLEAQQESLKEEQLSLKSNHEQEVKILRSQLGEKLRIELDIEPTIDLNRVLGEMRAQYEAMLETNRQDVEQWFQAQSEGISLQAMSCSEELQCCQSEILELRCTVNALEVERQAQHTLKDCLQNSLCEAEDRFGTELAQMQSLISNVEEQLSEIRADLERQNQEYQVLLDVKTRLENEIATYRNLLESEDCKLPCNPCSTSPSCVTAPCAPRPSCGPCTTCGPTCGASTTGSRF [D306A]	with no effect

Variants of: B2
Conditions: with fnd3b_human FNDC3B

Variant	effect of a mutation on the interaction
A127S	with no effect

Variants of: B2
Conditions: with at2l2_human PHYKPL

Variant	effect of a mutation on the interaction
A127S	with no effect

Variants of: B2
Conditions: with cd209_human CD209, Q9NNX6
Sequence of cd209_human CD209, Q9NNX6 (Q9NNX6 whole entry): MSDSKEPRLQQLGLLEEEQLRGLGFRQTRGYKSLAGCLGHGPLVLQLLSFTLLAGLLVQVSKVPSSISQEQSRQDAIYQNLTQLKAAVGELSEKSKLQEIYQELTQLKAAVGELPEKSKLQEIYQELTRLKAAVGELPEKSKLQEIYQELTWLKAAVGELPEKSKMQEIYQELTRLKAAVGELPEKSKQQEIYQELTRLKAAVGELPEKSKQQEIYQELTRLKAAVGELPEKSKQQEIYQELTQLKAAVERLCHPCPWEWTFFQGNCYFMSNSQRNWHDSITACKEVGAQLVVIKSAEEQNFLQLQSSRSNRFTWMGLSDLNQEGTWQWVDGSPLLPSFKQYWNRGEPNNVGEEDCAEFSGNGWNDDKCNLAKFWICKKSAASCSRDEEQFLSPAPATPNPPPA

Variant	effect of a mutation on the interaction
A127S	with no effect

Variants of: B2
Conditions: with myome_human PDE4DIP

Variant	effect of a mutation on the interaction
A127S	with no effect

Variants of: B2
Conditions: with co8a1_human COL8A1, P27658
Sequence of co8a1_human COL8A1, P27658 (P27658 whole entry): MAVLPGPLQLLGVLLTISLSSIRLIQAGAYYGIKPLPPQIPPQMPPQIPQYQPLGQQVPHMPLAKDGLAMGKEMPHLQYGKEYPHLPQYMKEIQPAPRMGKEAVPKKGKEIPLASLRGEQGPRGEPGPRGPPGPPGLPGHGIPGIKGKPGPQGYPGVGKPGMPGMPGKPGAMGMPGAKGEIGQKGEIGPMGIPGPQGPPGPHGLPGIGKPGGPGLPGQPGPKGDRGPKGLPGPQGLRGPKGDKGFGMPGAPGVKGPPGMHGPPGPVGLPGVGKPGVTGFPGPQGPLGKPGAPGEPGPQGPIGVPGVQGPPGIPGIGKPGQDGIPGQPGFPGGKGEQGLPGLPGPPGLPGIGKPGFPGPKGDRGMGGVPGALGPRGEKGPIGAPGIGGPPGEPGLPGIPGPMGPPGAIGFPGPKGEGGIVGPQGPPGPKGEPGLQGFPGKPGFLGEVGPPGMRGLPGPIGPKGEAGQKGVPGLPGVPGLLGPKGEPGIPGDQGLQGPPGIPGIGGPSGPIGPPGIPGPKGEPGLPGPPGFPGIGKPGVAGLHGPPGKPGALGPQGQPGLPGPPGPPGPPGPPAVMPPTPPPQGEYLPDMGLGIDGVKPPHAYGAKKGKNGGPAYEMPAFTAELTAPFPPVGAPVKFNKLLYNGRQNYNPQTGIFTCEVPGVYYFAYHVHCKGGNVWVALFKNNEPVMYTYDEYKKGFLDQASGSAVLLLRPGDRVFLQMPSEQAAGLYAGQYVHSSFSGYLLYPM

Variant	effect of a mutation on the interaction
A127S	with no effect

Variants of: B2
Conditions: with znf34_human ZNF34, Q8IZ26
Sequence of znf34_human ZNF34, Q8IZ26 (Q8IZ26 whole entry): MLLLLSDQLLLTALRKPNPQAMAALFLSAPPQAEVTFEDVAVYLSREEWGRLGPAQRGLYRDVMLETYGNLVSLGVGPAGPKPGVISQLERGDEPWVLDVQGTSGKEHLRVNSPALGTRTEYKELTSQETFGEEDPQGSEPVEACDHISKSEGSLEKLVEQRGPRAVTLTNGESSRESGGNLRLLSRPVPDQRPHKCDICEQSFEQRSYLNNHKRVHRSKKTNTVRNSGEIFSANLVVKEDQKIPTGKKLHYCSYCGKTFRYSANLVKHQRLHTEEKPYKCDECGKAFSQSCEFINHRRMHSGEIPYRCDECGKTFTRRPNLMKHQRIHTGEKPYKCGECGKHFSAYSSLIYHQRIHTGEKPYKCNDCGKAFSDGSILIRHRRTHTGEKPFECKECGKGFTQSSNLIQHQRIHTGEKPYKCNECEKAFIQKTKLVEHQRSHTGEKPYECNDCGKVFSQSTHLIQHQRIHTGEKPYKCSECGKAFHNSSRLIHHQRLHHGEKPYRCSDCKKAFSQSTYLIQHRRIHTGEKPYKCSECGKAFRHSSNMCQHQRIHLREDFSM

Variant	effect of a mutation on the interaction
A127S	with no effect

Variants of: B2
Conditions: with ntaq1_human NTAQ1, Q96HA8
Sequence of ntaq1_human NTAQ1, Q96HA8 (Q96HA8 whole entry): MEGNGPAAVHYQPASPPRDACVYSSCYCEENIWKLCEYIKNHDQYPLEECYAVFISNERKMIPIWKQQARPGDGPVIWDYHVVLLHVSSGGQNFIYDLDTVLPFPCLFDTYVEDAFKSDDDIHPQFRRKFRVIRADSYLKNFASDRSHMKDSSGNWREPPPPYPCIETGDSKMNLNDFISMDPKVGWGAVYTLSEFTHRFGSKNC

Variant	effect of a mutation on the interaction
A127S	with no effect

Variants of: B2
Conditions: with casp1_human CASP1, P29466
Sequence of casp1_human CASP1, P29466 (P29466 whole entry): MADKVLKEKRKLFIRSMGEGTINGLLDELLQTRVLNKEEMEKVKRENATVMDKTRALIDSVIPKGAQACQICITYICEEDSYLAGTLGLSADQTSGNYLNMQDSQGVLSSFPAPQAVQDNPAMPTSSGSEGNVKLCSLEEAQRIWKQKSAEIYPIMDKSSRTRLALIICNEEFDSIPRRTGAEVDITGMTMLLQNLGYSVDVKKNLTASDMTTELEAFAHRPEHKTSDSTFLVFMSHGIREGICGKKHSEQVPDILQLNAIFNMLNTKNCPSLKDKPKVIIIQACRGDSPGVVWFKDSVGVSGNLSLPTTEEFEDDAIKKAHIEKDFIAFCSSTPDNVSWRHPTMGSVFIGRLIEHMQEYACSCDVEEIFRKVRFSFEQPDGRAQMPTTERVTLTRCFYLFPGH

Variant	effect of a mutation on the interaction
A127S	with no effect

Variants of: B2
Conditions: with fyv1_human PIKFYVE

Variant	effect of a mutation on the interaction
A127S	with no effect

Reference: IntAct's records for PubMed 29892012
